Data taken from the supplement of paper PMC12764529.
± gives the half width of the 95% confidence interval.

Experiments:
[1] = folding stability dG unfold from chymotrypsin proteolysis; higher = more stable
Description: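 Folding stability of de novo designed mini-proteins (<80 aa, no Cys; designed by TrROS, TrMRF, ProteinMPNN and the joint model) was measured by cDNA display proteolysis with trypsin and chymotrypsin. Each protease was used at 11 concentrations in a threefold dilution series plus a no-protease condition. K50 was inferred by Bayesian fitting of sequencing counts, and dG unfold was derived against a sequence-predicted unfolded-state K50 (Tsuboyama et al. method). Sequences shown include variable-length N-terminal GS-type padding (SAGGSAGG...) inside a display construct carrying a PA tag. Rows were kept only if the AF2 dimer inter-PAE was >15, to exclude likely homo-oligomers.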

[2] = folding stability dG unfold (combined trypsin and chymotrypsin); higher = more stable
Outline: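 Unfolding free energy was derived, per protease or combined, by relating Bayesian-fitted K50 values from sequencing counts to a sequence-predicted unfolded-state K50 and a shared folded-state K50. The underlying digests exposed cysteine-free mini-proteins under 80 residues, in a PA-tagged cDNA display construct, to trypsin and chymotrypsin at 11 threefold-diluted concentrations and to a no-protease condition. A filter kept only designs with AlphaFold2 dimer inter-PAE above 15.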

| Sequence | folding stability dG unfold [1] | folding stability dG unfold [2] |
| --- | --- | --- |
| SAGGSAGGSAGGLIPPNQKIKIKEIEPPNNEMNIDLEYPDNGKKVEFPFDSPEQALDALSAGGSAGGSAGGS [r10_1038_TrROS] | 0.658 ± 0.049 kcal/mol | 0.227 ± 0.14 kcal/mol |
| SAGGSAGGSAGGLPINARPPNIAEVIRALRESGRYRVVEIRPFGDGAVIRVEKDGVPLESAGGSAGGSAGGS [r10_695_TrMRF] | 0.769 ± 0.19 kcal/mol | 0.0741 ± 0.34 kcal/mol |
| SAGGSAGGSAGGMKIRVTHPTNKTEEIIPVSELKKIPGPYTIEPLGPDPELAEKIKKLLSAGGSAGGSAGGS [r10_419_JUSTAS] | 0.553 ± 0.22 kcal/mol | 0.142 ± 0.25 kcal/mol |
| SAGGSAGGSAGGMKITLKVKKPDGTTTTITVDIDESKIEEIKEEIAPKGYEVEEAEIELESAGGSAGGSAGG [r7_159_JUSTAS] | 0.638 ± 0.12 kcal/mol | 0.00742 ± 0.36 kcal/mol |
| SAGGSAGGSAGGMPAEEVQNIIEEQGFDGPNQTVTIDVPDGRRVKIEMPPNGMKLEVEDSAGGSAGGSAGGS [r10_604_TrROS] | 0.0665 ± 0.081 kcal/mol | -0.538 ± 0.31 kcal/mol |
| SAGGSAGGSAGGMPPRLVEIPIFVPPTDPARAEALAEELREELGAEEVVVRIVLAPPGLGSAGGSAGGSAGG [r7_632_JUSTAS] | 0.982 ± 0.013 kcal/mol | 0.414 ± 0.072 kcal/mol |
| SAGGSAGGSAGGMRTFPSESLETLPENGLRKKTLTVTYVPPDNPERSYVETEVEIIPSEVSAGGSAGGSAGG [r17_241_JUSTAS] | -1.03 ± 0.34 kcal/mol | < -1 kcal/mol |
| SAGGSAGGSAGGMTETVTLTEVGVTTKTAPLPEGPLTTTPTVTVDRVITLPPSSPAALALSAGGSAGGSAGG [r7_889_JUSTAS] | -0.257 ± 0.42 kcal/mol | < -1 kcal/mol |
| SAGGSAGGSAGGMTLTVKDPASDEWTTVDLSPEQLPEVRAAVPEGPVTFELEASDSVIELSAGGSAGGSAGG [r7_188_JUSTAS] | 0.94 ± 0.061 kcal/mol | 0.409 ± 0.059 kcal/mol |
| SAGGSAGGSAGGMVKTTTQVSIDPNSDYRYTTTTTTVVDANGKPLATQTTLTVTKLAGTSSAGGSAGGSAGG [r7_616_JUSTAS] | -0.125 ± 0.34 kcal/mol | -0.516 ± 0.42 kcal/mol |
| SAGGSAGGSAGGMYSVTLTPVSSPDGELRLRAVYPELGLVRDFDPATGRPVRVVPAALLSAGGSAGGSAGGS [r10_589_JUSTAS] | 0.411 ± 0.22 kcal/mol | -0.422 ± 0.26 kcal/mol |
| SAGGSAGGSAGGNDPNGQEKEIPIDPGQRADEIAEEFKDEFNPDHVEIEASEEGYAEVRVSAGGSAGGSAGG [r7_273_TrROS] | 0.887 ± 0.044 kcal/mol | 0.348 ± 0.079 kcal/mol |
| SAGGSAGGSAGGNVPIPFLPEGFDVEVKKIEVPTPGKVKLVLVPKNSDEEFELEFSPEELSAGGSAGGSAGG [r7_342_TrMRF] | -0.633 ± 0.2 kcal/mol | < -1 kcal/mol |
| SAGGSAGGSAGGPELPEDVPVVEVVHLDLPFSPDEPEVVEEAEAKAAALEEGGALAEIRRSAGGSAGGSAGG [r11_519_JUSTAS] | 0.728 ± 0.06 kcal/mol | 0.0364 ± 0.097 kcal/mol |
| SAGGSAGGSAGGPIKIKHNDGVEITIPADNVRSVDTNPGPGYIKITFPGNGQEFQIPIDSAGGSAGGSAGGS [r10_200_TrROS] | 0.00978 ± 0.031 kcal/mol | -0.306 ± 0.12 kcal/mol |
| SAGGSAGGSAGGPIRIKNIENVNPDDGMFTVDVEFPDGKNHTYMIPPDQLEEPGDEIEIPSAGGSAGGSAGG [r7_117_TrROS] | -0.696 ± 0.54 kcal/mol | < -1 kcal/mol |

| Sequence | folding stability dG unfold [1] | folding stability dG unfold [2] |
| --- | --- | --- |
| SAGGSAGGSAGGPLPVTVTVLERTHYPEEGLYTVKTEGGTVITLPPELIDKHPPGSTVLLSAGGSAGGSAGG [r11_124_JUSTAS] | -0.736 ± 0.82 kcal/mol | < -1 kcal/mol |
| SAGGSAGGSAGGPMRLVRIPLDDGKIKVVPIPPGEAIPFENDNGEIYFMVTDDKIEIMPSAGGSAGGSAGGS [r10_817_TrROS] | 0.181 ± 0.44 kcal/mol | 0.0436 ± 0.15 kcal/mol |
| SAGGSAGGSAGGPPPGDKIEIIVIKFEPRYDPDGEPKNPRIDSIEVITIPADDPDDLLEASAGGSAGGSAGG [r7_439_TrROS] | 0.805 ± 0.079 kcal/mol | 0.348 ± 0.34 kcal/mol |
| SAGGSAGGSAGGPRVGVVRELPDDSRVALLEIEETLTSPGPDGTPRSRPFRAVFVVPLGSAGGSAGGSAGGS [r10_718_TrMRF] | 0.69 ± 0.26 kcal/mol | -0.16 ± 0.18 kcal/mol |
| SAGGSAGGSAGGPSSLLDGTPVELSVSPVEVNSVSTVTLPNGSTVPVSKKVKKTVVSVVASAGGSAGGSAGG [r7_90_JUSTAS] | 0.61 ± 0.075 kcal/mol | 0.23 ± 0.097 kcal/mol |
| SAGGSAGGSAGGPVLIRAVFTPPNGPVLELVVPSPEEVVELAKPFDVEVHIEPISPDDPFSAGGSAGGSAGG [r7_456_TrMRF] | -1.12 ± 0.45 kcal/mol | < -1 kcal/mol |
| SAGGSAGGSAGGRIRLPGWEIEDVKVYETGDKPYYTITYKNPNGKPKKMLMPADDLDDFSAGGSAGGSAGGS [r10_645_TrROS] | -0.216 ± 0.61 kcal/mol | -0.618 ± 0.52 kcal/mol |
| SAGGSAGGSAGGSAVEVDPNGGVTRTRYPGGAVRLETVSPTPDGSLATRTEEVELPGLASAGGSAGGSAGGS [r4_248_JUSTAS] | 0.871 ± 0.013 kcal/mol | 0.403 ± 0.051 kcal/mol |
| SAGGSAGGSAGGSAVTSDGTEVEPDQLVEEATLTPPDGEPVRLRVYAVPDSDEVVTEAGSAGGSAGGSAGGS [r4_13_TrMRF] | 0.691 ± 0.26 kcal/mol | < -1 kcal/mol |
| SAGGSAGGSAGGSDMEIVPRRIPDGFRLMVARNPEGTYTVQVWNPNGKPKWETIPPDEISAGGSAGGSAGGS [r4_120_TrROS] | -0.185 ± 0.22 kcal/mol | -0.485 ± 0.21 kcal/mol |
| SAGGSAGGSAGGSDPSMSLETFVIPESTSTVTLTDPSGTLRTLTTGRDPLTLTEVLPPRSAGGSAGGSAGGS [r4_162_JUSTAS] | 0.459 ± 0.12 kcal/mol | -0.078 ± 0.17 kcal/mol |
| SAGGSAGGSAGGSDSSVITFDIPVSEYPAKIKLSPETKTMTVVSTSPEGTVKVAIERPGSAGGSAGGSAGGS [r10_352_JUSTAS] | -0.297 ± 0.14 kcal/mol | -0.889 ± 0.48 kcal/mol |
| SAGGSAGGSAGGSEEKPIPIKVKIWKPNPGELVEEKEYLIPSNGSAEEIKKAFPNAEISSAGGSAGGSAGGS [r4_187_TrMRF] | 0.689 ± 0.15 kcal/mol | 0.12 ± 0.3 kcal/mol |
| SAGGSAGGSAGGSGPPHMRTTNEVTITLDGTVVSGSTPLPESLPPGVETYTTETYLPPLSAGGSAGGSAGGS [r4_436_JUSTAS] | -0.308 ± 0.13 kcal/mol | < -1 kcal/mol |
| SAGGSAGGSAGGSGPPLRTEERVEEVTLPNGERLLVETTTLTDPVTGETTVSRSIRLPLSAGGSAGGSAGGS [r4_445_JUSTAS] | 0.53 ± 0.1 kcal/mol | -0.38 ± 0.19 kcal/mol |
| SAGGSAGGSAGGSKIEVYKEPNKITIVIHPGNKPLVFTATEPIPIETLIKKAREAFPDASAGGSAGGSAGGS [r4_191_TrMRF] | 0.516 ± 0.12 kcal/mol | -0.0455 ± 0.13 kcal/mol |
